Assay results as given in doi:10.1101/2025.11.29.689641.

Target: SoP450 from Shimazuella soli (CPR-containing self-sufficient cytochrome P450, homologue of P450BM3) (Shimazuella soli)
Assay: SEC

Q: How did the stoichiometry N turn out when “SoP450 from Shimazuella soli (CPR-containing self-sufficient cytochrome P450, homologue of P450BM3) (enzyme)” was run?
A: 2
